According to US20170114140A1:
Values joined by “and” are separate entries in the source; they are usually repeats but may differ in a detail not shown here. Identical values can stand only once.

Tests used:
Assay in all cases: cell-based or functional assay
[1] = molecular target: IL-25 (R&D Systems) used to restimulate human PBMC (UniProt Q9H293)
[2] = molecular target: human IL-17RA on cells (human PBMC; human foreskin fibroblasts) (human) (UniProt Q96F46)
[3] = molecular target: human IL-17RB on human PBMC (human) (UniProt Q9NRM6)
Chain of human IL-17RB on human PBMC (human) (Q9NRM6 18-502): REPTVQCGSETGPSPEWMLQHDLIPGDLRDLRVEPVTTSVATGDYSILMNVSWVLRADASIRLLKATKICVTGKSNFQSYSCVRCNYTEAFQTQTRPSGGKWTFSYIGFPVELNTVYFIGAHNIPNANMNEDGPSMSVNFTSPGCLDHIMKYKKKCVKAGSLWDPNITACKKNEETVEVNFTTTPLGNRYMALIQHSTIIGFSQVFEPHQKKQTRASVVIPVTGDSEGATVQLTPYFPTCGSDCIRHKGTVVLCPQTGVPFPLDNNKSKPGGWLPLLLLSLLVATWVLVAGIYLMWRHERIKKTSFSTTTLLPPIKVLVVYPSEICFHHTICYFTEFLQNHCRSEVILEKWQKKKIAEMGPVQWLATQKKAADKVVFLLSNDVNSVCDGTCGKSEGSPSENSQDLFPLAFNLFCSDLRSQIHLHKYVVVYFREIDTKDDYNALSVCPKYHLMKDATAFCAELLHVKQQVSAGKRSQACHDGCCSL

Chain of IL-25 (R&D Systems) used to restimulate human PBMC (Q9H293 33-177 limits assumed): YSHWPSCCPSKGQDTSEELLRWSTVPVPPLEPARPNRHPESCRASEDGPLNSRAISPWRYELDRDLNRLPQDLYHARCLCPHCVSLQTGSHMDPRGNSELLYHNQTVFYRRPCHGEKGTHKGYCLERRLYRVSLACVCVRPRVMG

HuIL-17RB: HIS (extracellular region of human IL-17RB fused to poly HIS) (from UniProt Q9NRM6 18-292) (receptor)
% Inhibition of IL-5 production (TSLP treated human PBMC + IL-2 + IL-25), inhibitor 10 micrograms/mL [1]: 67%

MAB1771: anti-HuIL-17RA MuIgG2b (R&D Systems) (antibody)
% Inhibition of IL-5 production (TSLP treated human PBMC + IL-2 + IL-25), inhibitor 10 micrograms/mL [2]: 24% and 33%

MAB1207: anti-HuIL-17RB MuIgG2b (R&D Systems) (antibody)
% Inhibition of IL-5 production (TSLP treated human PBMC + IL-2 + IL-25), inhibitor 10 micrograms/mL [3]: 13%
